Source: patent publication US20120095193A1 (published 2012)

T1: human ADAMTS5 (human, UniProt Q9UNA0 262-622, limits assumed)
T1 construct: Octet and ELISA used 'recombinant human ADAMTS5'; also called recombinant human ADAMTS5; ADAMTS5 (R&D Systems 2198-AD)
T1 sequence: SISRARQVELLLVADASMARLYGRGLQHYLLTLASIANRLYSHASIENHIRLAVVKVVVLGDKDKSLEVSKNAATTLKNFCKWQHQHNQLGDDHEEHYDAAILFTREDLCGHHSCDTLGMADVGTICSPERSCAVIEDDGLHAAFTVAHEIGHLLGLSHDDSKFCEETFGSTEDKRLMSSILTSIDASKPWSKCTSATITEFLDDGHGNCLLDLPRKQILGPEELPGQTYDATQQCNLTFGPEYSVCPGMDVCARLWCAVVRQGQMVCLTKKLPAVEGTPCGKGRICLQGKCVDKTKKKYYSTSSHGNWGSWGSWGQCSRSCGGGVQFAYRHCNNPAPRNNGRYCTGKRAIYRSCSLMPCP


These binders were tested against T1, human ADAMTS5 (assay: Biacore, mAb from culture supernatant captured on anti-human IgG, ADAMTS5 (R&D 2198-AD) at 64 nM, 1:1 fit).
Method: Anti-human IgG (Biacore™, BR-1008-39) was immobilized on a CM5 chip by primary amine coupling. This surface was then used to capture the humanized antibodies, ADAMTS5 (R&D Systems 2198-AD) was then passed over the captured antibody at a single concentration of 64 nM, regeneration was carried out using 100 mM phosphoric acid followed by 3M MgCl₂. The binding curves were double referenced with buffer injection (i.e. 0 nM) and the data was fitted to the T100 analysis software using the 1:1 model. The run was carried out at 25° C., using HBS-EP as the running buffer. All antibodies were captured from tissue culture supernatants unless specified.

Kd [nM] | koff [s⁻¹] | kon [M⁻¹ s⁻¹] | Binder
0.624 | 0.000395 | 633000 | BPC1656 (antibody, human IgG1, kappa, V domains shown, Humanized, human gamma 1 / kappa; also called 12F4 H1L0) VH: EVQLLESGGGLVQPGGSLRLSCAASGFTFSDAWMDWVRQAPGKGLEWVSEIRHKANDHAIFYDESVKGRFTISRDNSKNTLYLQMNSLRAEDTAVYYCTSPFAYWGQGTLVTVSS VL: DIQMTQSPSSLSASVGDRVTITCKASQSVGTTIVWYQQKPGKAPKLLIYSASNRHTGVPSRFSGSGSGTDFTLTISSLQPEDFATYYCQQYTSYPFTFGQGTKLEIKR
0.312 | 0.00014 | 448000 | BPC1658 (antibody, human IgG1, kappa, V domains shown, Humanized, human gamma 1 / kappa; also called 12F4 H3L0) VH: EVQLLESGGGLVQPGGSLRLSCAASGFTFSDAWMDWVRQAPGKGLEWVAEIRHKANDHAIFYDESVKGRFTISRDNSKNTVYLQMNSLRAEDTAVYYCTSPFAYWGQGTLVTVSS VL: DIQMTQSPSSLSASVGDRVTITCKASQSVGTTIVWYQQKPGKAPKLLIYSASNRHTGVPSRFSGSGSGTDFTLTISSLQPEDFATYYCQQYTSYPFTFGQGTKLEIKR
0.129 | 7.54e-05 | 585000 | BPC1657 (antibody, human IgG1, kappa, V domains shown, Humanized, human gamma 1 / kappa; also called 12F4 H2L0) VH: EVQLLESGGGLVQPGGSLRLSCAASGFTFSDAWMDWVRQAPGKGLEWVSEIRHKANDHAIFYDESVKGRFTISRDDSKNTLYLQMNSLRAEDTAVYYCTSPFAYWGQGTLVTVSS VL: DIQMTQSPSSLSASVGDRVTITCKASQSVGTTIVWYQQKPGKAPKLLIYSASNRHTGVPSRFSGSGSGTDFTLTISSLQPEDFATYYCQQYTSYPFTFGQGTKLEIKR
1.05 | 0.00157 | 1.49e+06 | BPC1644 (antibody, human IgG1, kappa, V domains shown, Humanized, human gamma 1 / kappa; also called 7B4 H3L1) VH: EVQLVESGGGLVQPGGSLRLSCAASGFTSSDAWMDWVRQAPGKGLEWVAEIRNKANNHARHYAESVKGRFTISRDNAKNSLYLQMNSLRAEDTAVYYCTRTYYYGSSYGYCDVWGQGTLVTVSS VL: DIQMTQSPSSLSASVGDRVTITCRTSENIYSYLAWYQQKPGKAPKLLVYNAKTLAEGVPSRFSGSGSGTDFTLTISSLQPEDFATYYCQHHYGTPWTFGQGTKLEIKR
0.86 | 0.000963 | 1.12e+06 | BPC1637 (antibody, human IgG1, kappa, V domains shown, Humanized, human gamma 1 / kappa; also called 7B4 H3L0) VH: EVQLVESGGGLVQPGGSLRLSCAASGFTSSDAWMDWVRQAPGKGLEWVAEIRNKANNHARHYAESVKGRFTISRDNAKNSLYLQMNSLRAEDTAVYYCTRTYYYGSSYGYCDVWGQGTLVTVSS VL: DIQMTQSPSSLSASVGDRVTITCRTSENIYSYLAWYQQKPGKAPKLLIYNAKTLAEGVPSRFSGSGSGTDFTLTISSLQPEDFATYYCQHHYGTPWTFGQGTKLEIKR
1.08 | 0.000849 | 787000 | BPC1640 (antibody, human IgG1, kappa, V domains shown, Humanized, human gamma 1 / kappa; also called 7B4 H6L0) VH: EVQLVESGGGLVQPGGSLRLSCAASGFTSSDAWMDWVRQAPGKGLEWVAEIRNKANNHARHYAESVKGRFTISRDDAKNSVYLQMNSLRAEDTAVYYCTRTYYYGSSYGYCDVWGQGTLVTVSS VL: DIQMTQSPSSLSASVGDRVTITCRTSENIYSYLAWYQQKPGKAPKLLIYNAKTLAEGVPSRFSGSGSGTDFTLTISSLQPEDFATYYCQHHYGTPWTFGQGTKLEIKR
0.95 | 0.000831 | 875000 | BPC1638 (antibody, human IgG1, kappa, V domains shown, Humanized, human gamma 1 / kappa; also called 7B4 H4L0) VH: EVQLVESGGGLVQPGGSLRLSCAASGFTSSDAWMDWVRQAPGKGLEWVAEIRNKANNHARHYAESVKGRFTISRDDAKNSLYLQMNSLRAEDTAVYYCTRTYYYGSSYGYCDVWGQGTLVTVSS VL: DIQMTQSPSSLSASVGDRVTITCRTSENIYSYLAWYQQKPGKAPKLLIYNAKTLAEGVPSRFSGSGSGTDFTLTISSLQPEDFATYYCQHHYGTPWTFGQGTKLEIKR
1.04 | 0.00116 | 1.12e+06 | BPC1645 (antibody, human IgG1, kappa, V domains shown, Humanized, human gamma 1 / kappa; also called 7B4 H4L1) VH: EVQLVESGGGLVQPGGSLRLSCAASGFTSSDAWMDWVRQAPGKGLEWVAEIRNKANNHARHYAESVKGRFTISRDDAKNSLYLQMNSLRAEDTAVYYCTRTYYYGSSYGYCDVWGQGTLVTVSS VL: DIQMTQSPSSLSASVGDRVTITCRTSENIYSYLAWYQQKPGKAPKLLVYNAKTLAEGVPSRFSGSGSGTDFTLTISSLQPEDFATYYCQHHYGTPWTFGQGTKLEIKR
0.964 | 0.000894 | 927000 | BPC1639 (antibody, human IgG1, kappa, V domains shown, Humanized, human gamma 1 / kappa; also called 7B4 H5L0) VH: EVQLVESGGGLVQPGGSLRLSCAASGFTSSDAWMDWVRQAPGKGLEWVAEIRNKANNHARHYAESVKGRFTISRDNAKNSVYLQMNSLRAEDTAVYYCTRTYYYGSSYGYCDVWGQGTLVTVSS VL: DIQMTQSPSSLSASVGDRVTITCRTSENIYSYLAWYQQKPGKAPKLLIYNAKTLAEGVPSRFSGSGSGTDFTLTISSLQPEDFATYYCQHHYGTPWTFGQGTKLEIKR
0.836 | 0.000896 | 1.07e+06 | BPC1636 (antibody, human IgG1, kappa, V domains shown, Humanized, human gamma 1 / kappa; also called 7B4 H2L0) VH: EVQLVESGGGLVQPGGSLRLSCAASGFTSSDAWMDWVRQAPGKGLEWVAEIRNKANNHARHYAESVKGRFTISRDNAKNSLYLQMNSLRAEDTAVYYCARTYYYGSSYGYCDVWGQGTLVTVSS VL: DIQMTQSPSSLSASVGDRVTITCRTSENIYSYLAWYQQKPGKAPKLLIYNAKTLAEGVPSRFSGSGSGTDFTLTISSLQPEDFATYYCQHHYGTPWTFGQGTKLEIKR
1.05 | 0.00143 | 1.36e+06 | BPC1643 (antibody, human IgG1, kappa, V domains shown, Humanized, human gamma 1 / kappa; also called 7B4 H2L1) VH: EVQLVESGGGLVQPGGSLRLSCAASGFTSSDAWMDWVRQAPGKGLEWVAEIRNKANNHARHYAESVKGRFTISRDNAKNSLYLQMNSLRAEDTAVYYCARTYYYGSSYGYCDVWGQGTLVTVSS VL: DIQMTQSPSSLSASVGDRVTITCRTSENIYSYLAWYQQKPGKAPKLLVYNAKTLAEGVPSRFSGSGSGTDFTLTISSLQPEDFATYYCQHHYGTPWTFGQGTKLEIKR
1.32 | 0.000945 | 714000 | BPC1641 (antibody, human IgG1, kappa, V domains shown, Humanized, human gamma 1 / kappa; also called 7B4 H0L1) VH: EVQLVESGGGLVQPGGSLRLSCAASGFTFSDAWMDWVRQAPGKGLEWVAEIRNKANNHARHYAESVKGRFTISRDNAKNSLYLQMNSLRAEDTAVYYCARTYYYGSSYGYCDVWGQGTLVTVSS VL: DIQMTQSPSSLSASVGDRVTITCRTSENIYSYLAWYQQKPGKAPKLLVYNAKTLAEGVPSRFSGSGSGTDFTLTISSLQPEDFATYYCQHHYGTPWTFGQGTKLEIKR
1.36 | 0.00121 | 887000 | BPC1642 (antibody, human IgG1, kappa, V domains shown, Humanized, human gamma 1 / kappa; also called 7B4 H1L1) VH: EVQLVESGGGLVQPGGSLRLSCAASGFTFSDAWMDWVRQAPGKGLEWVAEIRNKANNHARHYAESVKGRFTISRDNAKNSLYLQMNSLRAEDTAVYYCTRTYYYGSSYGYCDVWGQGTLVTVSS VL: DIQMTQSPSSLSASVGDRVTITCRTSENIYSYLAWYQQKPGKAPKLLVYNAKTLAEGVPSRFSGSGSGTDFTLTISSLQPEDFATYYCQHHYGTPWTFGQGTKLEIKR
1.17 | 0.000826 | 704000 | BPC1635 (antibody, human IgG1, kappa, V domains shown, Humanized, human gamma 1 / kappa; also called 7B4 H1L0) VH: EVQLVESGGGLVQPGGSLRLSCAASGFTFSDAWMDWVRQAPGKGLEWVAEIRNKANNHARHYAESVKGRFTISRDNAKNSLYLQMNSLRAEDTAVYYCTRTYYYGSSYGYCDVWGQGTLVTVSS VL: DIQMTQSPSSLSASVGDRVTITCRTSENIYSYLAWYQQKPGKAPKLLIYNAKTLAEGVPSRFSGSGSGTDFTLTISSLQPEDFATYYCQHHYGTPWTFGQGTKLEIKR
